# Data from patent US20190276501.
# T1: HB-EncK138^TEV-His with a GT linker between the TEV site and the N-terminus of Enc
# T1 chain: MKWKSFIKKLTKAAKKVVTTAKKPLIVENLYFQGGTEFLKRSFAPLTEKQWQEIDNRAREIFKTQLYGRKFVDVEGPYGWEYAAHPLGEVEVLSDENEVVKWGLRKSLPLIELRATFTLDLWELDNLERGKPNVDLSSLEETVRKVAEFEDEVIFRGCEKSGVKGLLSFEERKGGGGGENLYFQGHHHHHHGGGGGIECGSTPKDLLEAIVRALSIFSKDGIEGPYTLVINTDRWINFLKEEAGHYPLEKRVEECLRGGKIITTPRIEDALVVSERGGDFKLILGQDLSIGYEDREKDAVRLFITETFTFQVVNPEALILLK
# T2: Ap-EncK71^TEVK138^TEV-His
# T2 chain: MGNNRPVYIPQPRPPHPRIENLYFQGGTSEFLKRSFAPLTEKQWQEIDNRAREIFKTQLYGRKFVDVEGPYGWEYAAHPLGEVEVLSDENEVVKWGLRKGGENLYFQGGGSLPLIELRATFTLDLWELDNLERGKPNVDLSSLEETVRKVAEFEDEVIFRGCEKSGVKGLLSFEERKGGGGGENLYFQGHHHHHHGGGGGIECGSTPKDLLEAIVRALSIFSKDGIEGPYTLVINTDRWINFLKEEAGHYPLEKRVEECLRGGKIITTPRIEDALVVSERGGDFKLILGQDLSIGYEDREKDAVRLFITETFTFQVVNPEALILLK
# T3: HB-EncK138^TEV-His
# T3 chain: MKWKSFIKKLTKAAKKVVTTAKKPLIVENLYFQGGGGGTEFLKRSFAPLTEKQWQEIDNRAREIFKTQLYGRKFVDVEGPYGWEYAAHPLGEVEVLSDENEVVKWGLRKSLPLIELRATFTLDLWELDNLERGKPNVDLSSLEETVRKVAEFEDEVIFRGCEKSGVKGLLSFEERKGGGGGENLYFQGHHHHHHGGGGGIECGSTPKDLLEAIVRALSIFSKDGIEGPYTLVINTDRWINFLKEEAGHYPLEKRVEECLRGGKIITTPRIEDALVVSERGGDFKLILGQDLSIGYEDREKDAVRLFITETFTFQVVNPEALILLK
# T4: Ap-EncD60^TEVK138^TEV-His
# T4 chain: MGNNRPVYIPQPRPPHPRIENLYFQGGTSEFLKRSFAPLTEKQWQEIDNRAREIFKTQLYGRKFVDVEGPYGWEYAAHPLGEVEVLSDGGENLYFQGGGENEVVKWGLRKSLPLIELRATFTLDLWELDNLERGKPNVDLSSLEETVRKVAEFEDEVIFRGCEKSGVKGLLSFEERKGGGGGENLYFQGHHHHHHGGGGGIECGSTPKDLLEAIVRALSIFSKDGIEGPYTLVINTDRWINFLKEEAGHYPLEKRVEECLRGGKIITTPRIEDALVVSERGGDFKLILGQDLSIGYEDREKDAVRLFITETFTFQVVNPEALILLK
# T5: HB-EncV57^TEVK138^TEV-His
# T5 chain: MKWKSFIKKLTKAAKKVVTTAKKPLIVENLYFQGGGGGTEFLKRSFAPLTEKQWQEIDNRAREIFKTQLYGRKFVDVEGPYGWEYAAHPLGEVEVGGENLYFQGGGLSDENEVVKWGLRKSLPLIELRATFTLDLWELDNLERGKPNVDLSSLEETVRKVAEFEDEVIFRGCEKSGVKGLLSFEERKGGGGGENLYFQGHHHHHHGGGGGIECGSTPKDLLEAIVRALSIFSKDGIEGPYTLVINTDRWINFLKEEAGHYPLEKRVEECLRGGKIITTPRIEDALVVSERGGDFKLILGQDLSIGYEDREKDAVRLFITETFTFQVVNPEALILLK
# T6: HB-EncD60^TEVK138^TEV-His with a GT linker between the TEV site and the N-terminus of Enc
# T6 chain: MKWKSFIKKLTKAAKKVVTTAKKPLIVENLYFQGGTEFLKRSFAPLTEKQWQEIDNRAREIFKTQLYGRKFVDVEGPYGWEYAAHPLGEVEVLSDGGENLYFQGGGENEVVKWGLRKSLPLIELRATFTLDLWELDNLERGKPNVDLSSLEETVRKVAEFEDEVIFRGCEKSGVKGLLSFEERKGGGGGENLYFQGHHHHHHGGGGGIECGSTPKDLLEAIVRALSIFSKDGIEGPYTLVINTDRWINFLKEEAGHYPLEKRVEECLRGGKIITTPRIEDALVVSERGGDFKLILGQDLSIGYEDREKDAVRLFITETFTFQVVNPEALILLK
# T7: Ap-EncK138^TEV-His
# T7 chain: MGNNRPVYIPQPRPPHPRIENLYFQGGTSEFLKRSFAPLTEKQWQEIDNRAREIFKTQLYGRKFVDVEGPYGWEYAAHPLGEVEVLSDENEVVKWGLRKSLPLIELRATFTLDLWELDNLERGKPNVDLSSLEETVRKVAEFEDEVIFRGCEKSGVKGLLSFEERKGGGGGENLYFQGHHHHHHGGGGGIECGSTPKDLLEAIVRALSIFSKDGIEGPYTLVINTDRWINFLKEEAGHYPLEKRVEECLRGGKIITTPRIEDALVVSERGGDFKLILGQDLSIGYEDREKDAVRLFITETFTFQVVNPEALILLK
# T8: HB-EncD60^TEVK138^TEV-His
# T8 chain: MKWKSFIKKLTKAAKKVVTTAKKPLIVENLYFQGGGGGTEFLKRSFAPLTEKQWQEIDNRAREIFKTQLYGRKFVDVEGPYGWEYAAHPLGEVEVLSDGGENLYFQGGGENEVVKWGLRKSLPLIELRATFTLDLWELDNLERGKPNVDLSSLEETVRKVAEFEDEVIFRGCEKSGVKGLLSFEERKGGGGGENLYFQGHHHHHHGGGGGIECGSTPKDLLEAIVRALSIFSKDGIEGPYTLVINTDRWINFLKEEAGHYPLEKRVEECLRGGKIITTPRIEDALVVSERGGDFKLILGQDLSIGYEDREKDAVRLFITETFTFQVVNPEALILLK
# T9: HB-EncV57^TEVK138^TEV-His with a GT linker between the TEV site and the N-terminus of Enc
# T9 chain: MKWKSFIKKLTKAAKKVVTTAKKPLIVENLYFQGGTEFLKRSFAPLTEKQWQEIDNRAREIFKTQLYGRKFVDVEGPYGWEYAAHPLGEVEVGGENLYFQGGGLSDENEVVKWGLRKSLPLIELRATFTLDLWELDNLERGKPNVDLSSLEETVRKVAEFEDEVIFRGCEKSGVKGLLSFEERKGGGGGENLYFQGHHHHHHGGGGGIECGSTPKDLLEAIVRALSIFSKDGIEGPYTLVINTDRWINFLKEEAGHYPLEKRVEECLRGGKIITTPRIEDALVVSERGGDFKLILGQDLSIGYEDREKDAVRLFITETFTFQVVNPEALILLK
# B1: TEV protease (protein)
# chain: GESLFKGPRDYNPISSTICHLTNESDGHTTSLYGIGFGPFIITNKHLFRRNNGTLLVQSLHGVFKVKNTTTLQQHLIDGRDMIIIRMPKDFPPFPQKLKFREPQREERICLVTTNFQTKSMSSMVSDTSCTFPSSDGIFWKHWIQTKDGQCGSPLVSTRDGFIVGIHSASNFTNTNNYFTSVPKNFMELLTNQEAQQWVSGWRLNADSVLWGGHKVFMSKPEEPFQPVKEATQLMNELVYSQ
# Columns and labels:
# [1] = molecular target: T1, HB-EncK138^TEV-His with a GT linker …
# [2] = molecular target: T2, Ap-EncK71^TEVK138^TEV-His
# [3] = molecular target: T3, HB-EncK138^TEV-His
# [4] = molecular target: T4, Ap-EncD60^TEVK138^TEV-His
# [5] = molecular target: HB-EncK138^TEV-His, EncD60^TEVK138^TEV-His, and HB-EncV57^TEVK138^TEV-His
# [6] = molecular target: T5, HB-EncV57^TEVK138^TEV-His
# [7] = molecular target: T6, HB-EncD60^TEVK138^TEV-His with a GT …
# [8] = molecular target: T7, Ap-EncK138^TEV-His
# [9] = molecular target: T8, HB-EncD60^TEVK138^TEV-His
# [10] = molecular target: T9, HB-EncV57^TEVK138^TEV-His with a GT …
protein,measurement,setting,value
B1,release of HB peptide after TEV protease digestion (SDS-PAGE),[1],did not result in detectable release of HB peptide by SDS-PAGE
same,"TEV protease digestion, SDS-PAGE and anti-TEV site Western blot (up to 20 h at 30 C)",[2],"construct 125 (Ap-Encap(K71, K138)) is digested by TEV protease to near completion"
same,release of HBCM2 peptide after TEV protease digestion (densitometry),[3],released fewer peptide per fusion protein
same,"release of HBCM2 peptide after TEV protease digestion (overnight, 4 C; Tris-Tricine gel)",[3],All constructs were found to at least partially release HBCM2 peptide
same,"TEV protease digestion, SDS-PAGE and anti-TEV site Western blot (up to 20 h at 30 C)",[4],not well digested by TEV protease
same,relative HB/HB-Enc ratio (densitometry after TEV protease digestion),[5],a relative HB/HB-Enc ratio of 0.26 to 0.56
same,release of HBCM2 peptide after TEV protease digestion (densitometry),[6],released fewer peptide per fusion protein
same,"release of HBCM2 peptide after TEV protease digestion (overnight, 4 C; Tris-Tricine gel)",[6],All constructs were found to at least partially release HBCM2 peptide
same,release of HB peptide after TEV protease digestion (SDS-PAGE),[7],did not result in detectable release of HB peptide by SDS-PAGE
same,"TEV protease digestion, SDS-PAGE and anti-TEV site Western blot (up to 20 h at 30 C)",[8],not well digested by TEV protease
same,release of HBCM2 peptide after TEV protease digestion (densitometry),[9],released fewer peptide per fusion protein
same,"release of HBCM2 peptide after TEV protease digestion (overnight, 4 C; Tris-Tricine gel)",[9],All constructs were found to at least partially release HBCM2 peptide
same,release of HB peptide after TEV protease digestion (SDS-PAGE),[10],did not result in detectable release of HB peptide by SDS-PAGE
